B1: Docking protein 1 (Mus musculus), P97465 (parent)
chain: MDGAVMEGPLFLQSQRFGTKRWRKTWAVLYPASPHGVARLEFFDHKGSSSRGGRGGSRRLDCKMIRLAECVSVVPVTVESPPEPGAVAFRLDTAQRSHLLAADAVSSTAWVQTLCRTAFPKGGWALAQTENQPKFSALEMLENSLYSPTWEGSQFWVTSQKTEASERCGLQGSYILRVEAEKLTLLTLGAQSQILEPLLFWPYTLLRRYGRDKVMFSFEAGRRCPSGPGTFTFQTSQGNDIFQAVEAAIQQQKAQGKVGQAQDILRTDSHDGETEGKTVPPPVPQDPLGSPPALYAEPLDSLRIPPGPSQDSVYSDPLGSTPAGAGEGVHSKKPLYWDLYGHVQQQLLKTKLTDSKEDPIYDEPEGLAPAPPRGLYDLPQEPRDAWWCQARLKEEGYELPYNPATDDYAVPPPRSPKPAPAPKPQGLILPESGTTRGSGSKGFSSDTALYSQVQKSGTSGAWDCGLSKVGNDRAGVKSEGST

Variants of: B1
Conditions: with nck1_mouse Nck1, Q99M51

Row | Variant | effect of a mutation on the interaction
1 | Y361F | disrupting interaction

From IntAct's records for PubMed 15148308
